From US20200079854A1 (Johns Hopkins, published 2020)
Numbering of substitutions follows the chain as printed.

B1: KRAS_G12V_A2_A1 (scFv)
scFv: DIQMTQSPSSLSASVGDRVTITCRASQDVNTAVAWYQQKPGKAPKLLIYSASFLYSGVPSRFSGSRSGTDFTLTISSLQPEDFATYYCQQWYSSPVTFGQGTKVEIKRTGGGSGGGGSGGGASEVQLVESGGGLVQPGGSLRLSCAASGFNINWANMHWVRQAPGKGLEWVAQISPPYDYTNYADSVKGRFTISADTSKNTAYLQMNSLRAEDTAVYYCSRSYSYYFDYWGQGTLVTVSS
B2: KRAS_G12V_A2_C1 (scFv)
scFv: DIQMTQSPSSLSASVGDRVTITCRASQDVNTAVAWYQQKPGKAPKLLIYSASFLYSGVPSRFSGSRSGTDFTLTISSLQPEDFATYYCQQYYSRPVTFGQGTKVEIKRTGGGSGGGGSGGGASEVQLVESGGGLVQPGGSLRLSCAASGFNIYLHDMHWVRQAPGKGLEWVAQIIPAIDYTNYADSVKGRFTISADTSKNTAYLQMNSLRAEDTAVYYCSRRDGYYFDYWGQGTLVTVSS
B3: KRAS_G12V_A2_A5 (scFv)
scFv: B1 scFv with N153Y, A155S, N156H, Q173I, P176S, P177F, Y178E, D179G, N182Y, F227M
B4: KRAS_G12CDV_A3_c19 (scFv)
scFv: DIQMTQSPSSLSASVGDRVTITCRASQDVNTAVAWYQQKPGKAPKLLIYSASFLYSGVPSRFSGSRSGTDFTLTISSLQPEDFATYYCQQTYYSPWTFGQGTKVEIKRTGGGSGGGGSGGGASEVQLVESGGGLVQPGGSLRLSCAASGFNIRSYAMHWVRQAPGKGLEWVAQVGPGKGYTYYADSVKGRFTISADTSKNTAYLQMNSLRAEDTAVYYCSRNFQSTSHAFDYWGQGTLVTVSS
B5: KRAS_G12CDV_A3_c118 (scFv)
scFv: DIQMTQSPSSLSASVGDRVTITCRASQDVNTAVAWYQQKPGKAPKLLIYSASFLYSGVPSRFSGSRSGTDFTLTISSLQPEDFATYYCQQYYYPPITFGQGTKVEIKRTGGGSGGGGSGGGASEVQLVESGGGLVQPGGSLRLSCAASGFNVSHTGMHWVRQAPGKGLEWVAVVGPGKGYTYYADSVKGRFTISADTSKNTAYLQMNSLRAEDTAVYYCSRKTYYAFDYWGQGTLVTVSS
B6: KRAS_G12CV_A3_c15 (scFv)
scFv: DIQMTQSPSSLSASVGDRVTITCRASQDVNTAVAWYQQKPGKAPKLLIYSASFLYSGVPSRFSGSRSGTDFTLTISSLQPEDFATYYCQQSYGSGSPWTFGQGTKVEIKRTGGGSGGGGSGGGASEVQLVESGGGLVQPGGSLRLSCAASGFNIVGGGIHWVRQAPGKGLEWVAKIYPQGDYTYYADSVKGRFTISADTSKNTAYLQMNSLRAEDTAVYYCSRDSSYLAFDYWGQGTLVTVSS
B7: KRAS_G12D_A3_c111 (scFv)
scFv: DIQMTQSPSSLSASVGDRVTITCRASQDVNTAVAWYQQKPGKAPKLLIYSASFLYSGVPSRFSGSRSGTDFTLTISSLQPEDFATYYCQQYMYSPVTFGQGTKVEIKRTGGGSGGGGSGGGASEVQLVESGGGLVQPGGSLRLSCAASGFNVSAYWMHWVRQAPGKGLEWVAQIYGGSGYTMYADSVKGRFTISADTSKNTAYLQMNSLRAEDTAVYYCSRTHSYWSAFDYWGQGTLVTVSS
B8: KRAS_G12D_A3_D26 (scFv)
scFv: DIQMTQSPSSLSASVGDRVTITCRASQDVNTAVAWYQQKPGKAPKLLIYSASFLYSGVPSRFSGSRSGTDFTLTISSLQPEDFATYYCQQYAYSPLTFGQGTKVEIKRTGGGSGGGGSGGGASEVQLVESGGGLVQPGGSLRLSCAASGFNVSSYGMHWVRQAPGKGLEWVAFIAPRRDYTSYADSVKGRFTISADTSKNTAYLQMNSLRAEDTAVYYCSRKSSYYFDYWGQGTLVTVSS
B9: KRAS_G12D_A3_D12 (scFv)
scFv: DIQMTQSPSSLSASVGDRVTITCRASQDVNTAVAWYQQKPGKAPKLLIYSASFLYSGVPSRFSGSRSGTDFTLTISSLQPEDFATYYCQQSSSSPITFGQGTKVEIKRTGGGSGGGGSGGGASEVQLVESGGGLVQPGGSLRLSCAASGFNISGYGMHWVRQAPGKGLEWVAYLYGGSDYTNYADSVKGRFTISADTSKNTAYLQMNSLRAEDTAVYYCSRTVRYAFDYWGQGTLVTVSS
B10: KRAS_G12D_A3_D15 (scFv)
scFv: DIQMTQSPSSLSASVGDRVTITCRASQDVNTAVAWYQQKPGKAPKLLIYSASFLYSGVPSRFSGSRSGTDFTLTISSLQPEDFATYYCQQSSASPLTFGQGTKVEIKRTGGGSGGGGSGGGASEVQLVESGGGLVQPGGSLRLSCAASGFNVSSVGMHWVRQAPGKGLEWVAYIYGTSDYTYYADSVKGRFTISADTSKNTAYLQMNSLRAEDTAVYYCSRSSRYSMDYWGQGTLVTVSS

These binders were tested against KRAS wt(6-14) peptide … with HLA-A2 and b2M on peptide-pulsed T2 cells (human) (assay: flow cytometry, phage-displayed scFv on peptide-pulsed T2 cells (FIG. 5)).
Experimental: (§1) Cells were stained with 10 μL of precipitated phage per 100 μL of cells, washed and stained with rabbit anti-M13 antibody, then washed and stained with anti-Rabbit-PE antibody. Cells were stained with a live/dead Near-IR dye, washed, and analyzed by an LSRII flow cytometer.
(§2) The pulsed cells were pelleted, washed once in cold stain buffer (PBS containing 0.5% BSA, 2 mM EDTA, and 0.1% sodium azide), and resuspended in 100 μL of stain buffer. Phage staining was performed on ice with 10 uL (approximately 1×10⁹) phage for 1 hour in 100 uL total volume, followed by one 4 mL wash in cold stain buffer. Cells were then stained with 1 uL of rabbit anti-M13 antibody (Pierce, Rockford, Ill.) in 100 uL total volume on ice for 1 hour and washed once with 4 mL of cold stain buffer. Cells were stained with anti-rabbit-PE (Biolegend) on ice for 1 hour in 100 uL total volume, followed by incubation with LIVE/DEAD Fixable Near-IR Dead Cell Stain (Thermo Fisher) for 10 min at room temperature per manufacturer's instructions. Cells were washed once in 4 mL of stain buffer followed by resuspension in 300 uL of stain buffer before analysis. Stained cells were analyzed using an LSRII flow cytometer (Becton Dickinson, Mansfield, Mass.).

Row | binding result | Binder
1 | no binding | B1
2 | no binding | B2
3 | no binding | B3

These binders were tested against T1, KRAS wt(7-16) peptide … with HLA-A3 and b2M on cells (human) (assay: flow cytometry, phage-displayed scFv on peptide-pulsed T2A3 cells (FIG. 6)).
T1 construct: peptide-pulsed T2A3 cells in flow cytometry
Experimental: as §1, §2

Row | binding result | Binder
4 | no binding | B4
5 | no binding | B5
6 | no binding | B6

These binders were tested against T1, KRAS wt(7-16) peptide … with HLA-A3 and … (assay: flow cytometry, phage-displayed scFv on peptide-pulsed T2A3 cells (FIG. 8)).
Experimental: as §1, §2

Row | binding result | Binder
7 | no binding | B7
8 | no binding | B8
9 | no binding | B9
10 | no binding | B10
